Assay results taken from the supplement of paper PMC12042874.
± gives the uncertainty stated by the source.

test: amyloid nucleation score (Sup35N fusion, yeast selection) (log enrichment); library NNK2; higher = more nucleation; inactive = no reads after selection
Outline: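 Peptides of 20 random codons, each fused to Sup35N, were expressed in psi-negative yeast. Cells were induced with 100 μM copper sulfate for 24 hours and grown 7 days at 30°C on medium lacking adenine and uracil, and plasmid inserts before and after selection were Illumina-sequenced. Nucleation scores are DiMSum log enrichments of output over input reads, centred on the mode score of non-aggregating sequences, and sequences under 100 input reads were excluded.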

Substance | amyloid nucleation score
VGGLDKNHMVLDCLDKGCGM | 0.216 ± 0.62
LRSGLSLGSNLPKGGNIRSL | -0.531 ± 1.1
VLCFCRDFLFVLIQNPFTFP | inactive
EGCMSFFKRSQYATDQDLGA | -0.24 ± 0.39
KAIFSCDARFVRWNAHNREC | inactive
AYLQGSLMEKICKISCPVDN | -0.387 ± 1.1
VFAGFACFHIIN | 5.843 ± 0.044
YFGMISERFRFPVYFQNSPR | -1.14 ± 1.1
IMCEGSTPDFIIYSCMLLVY | -1.41 ± 0.42
FSVDMHRWLMTWRHQRDRRV | 2.75 ± 0.18
MWWFYGSILHRGDRT | 1.58 ± 0.23
KVALINYSLPMYFSVVTGLY | 2.97 ± 0.071
HKLTRRKWNCLRNWKLNLHQ | -0.953 ± 0.54
LYDVRGEMSNVGWFM | -0.052 ± 0.54
INFLNWFNLFDGYMFSLSAY | inactive
IALFVGFLVDAKDEGIL | -0.419 ± 0.26
GGNSQMFRLSLGDTKCSGSY | -1.06 ± 1.1
LNTLDNN | -0.047 ± 0.16
DLGGMP | -0.501 ± 0.48
YNYWMQSLGSWVEVLSSVSV | -0.365 ± 0.5
LNRLCRRVCRSINDTIAIRE | -0.157 ± 0.26
GLTYKSDWSSFRSVYL | -0.771 ± 0.55

Substance | amyloid nucleation score
RHQCIIWDIISLPGIWLCRR | 1.13 ± 0.23
CSFVLVFVIIQ | 3.49 ± 0.12
MSNMVSSMGSRMFLIICVVS | 0.68 ± 0.4
NDSRHTVIGYVMFKVYMYLK | inactive
VPELVSYFHLP | 0.863 ± 0.43
YIGSVIIWRRKVSRFHLGEA | 0.102 ± 0.79
VIRVESCPVYFYLTTRTAGS | 0.633 ± 0.8
YFDSDRS | -0.502 ± 0.76
ISMTTVDPQMEEFGLRHVGV | 0.831 ± 0.31
FLNPFNHREHPRVED | 0.775 ± 0.62
DDYRMVIVVT | -0.307 ± 0.33
ILKRMLRCIYNFNISVWIIR | -0.578 ± 0.31
CCDRSAPAT | -0.12 ± 0.54
WTWEKWESPHEDGSRRPIVG | 1.55 ± 0.18
GVNILTLWHWIYFNTTVQNN | -1.19 ± 0.38
WLKVS | -1.48 ± 0.55
YIGLSRATWM | -1.75 ± 0.62
SRVVGNRMYRSGLSRSSLLH | -0.263 ± 0.65
LHTTCLFSRWNVFL | 2.3 ± 0.076
RMNFLA | -0.145 ± 0.5
QLVGMD | 0.868 ± 0.27
FGDWWSI | -1.1 ± 0.63

Substance | amyloid nucleation score
GRSGRNNVKAW | inactive
RRIINWPNSGIGIPRSKSMF | inactive
CAFVGKVSTARLVSSRNSFN | 5.801 ± 0.045
RYFSISAFMVMGTVNVGGYW | 4.18 ± 0.045
NREIMMD | -0.184 ± 1.1
MSKYFWVSRGSSIITTW | -0.539 ± 0.37
AIRCMEVKRTKSLLLVDSLS | 0.154 ± 0.23
CVILDWSVVCFMELVINSRS | 3.21 ± 0.065
FFEFRCWVMKGFWPLRMKDM | 0.414 ± 0.65
LELHMGNLSSSTAYWLRRYS | -0.426 ± 0.48
ETSANDLEPNLSVHHSGFSR | 0.078 ± 0.32
VLSVGAGKYGLSLISSTTTI | 1.28 ± 0.66
MYLRYSFLIISCELGDLNSL | inactive
TASSLCIQVGYVIFLY | 8.072 ± 0.032
IVILDRFSPCSRTNE | 0.45 ± 0.8
TSRRHYIVSVNLMK | inactive
YDYEEFRSVLKWIAGRIYVD | -1.27 ± 0.48
EGFHGRMCHEHGKVLKAID | 0.178 ± 0.24
FIRSIHCVKMDELAWLLSVS | 0.252 ± 0.46
LVDKVYNDAILLVWDNESRT | -0.464 ± 0.64
EGLLHTYCICGFLVYHYMEV | 3.77 ± 0.054
GPCDQSWAT | 1.06 ± 0.19

Substance | amyloid nucleation score
TVLWSRLDPPPRERKL | 1.13 ± 0.34
CLVDGLANVHVYRENLGF | -0.841 ± 0.29
ALRTPCYSAMHLGAWVFVCF | 3.31 ± 0.14
LNMPLLYDYPCYNSWDRYYS | -1.5 ± 0.53
RIRVVPKWSFISNRRNCGKL | 4.25 ± 0.054
IIVIRD | 0.005 ± 0.36
CRHMSDHWKSSR | -0.562 ± 0.54
SMVKKLQMESPAFSVGIFWV | 7.74 ± 0.085
EMICVYSNFMKWVWSSFQTV | -0.832 ± 0.33
HVAWGHFLLIHIFHVNYGYL | -0.627 ± 1.1
RRSQLRLILTFR | -0.223 ± 0.29
VKIYVFSFFMEL | 3.7 ± 0.12
NFIFDFVV | -0.03 ± 0.21
FGWVINVNVRPTRFVTEGPV | 6.54 ± 0.073
CFMAVQI | inactive
WNNYVLGYEVNRMCLLDRSV | inactive
FTNLVTLYVYCYSFWYGILN | -0.232 ± 1.1
KSKLRCTFYSDAL | -0.219 ± 0.27
FCNFGFIRNRSDDIGVSRGV | -1.07 ± 0.47
FCTNSYSFMDGTSCWAELRA | 0.594 ± 0.47
